Peptide text beside a SMILES is read from it. * marks the point of attachment. AMC = Cc1cc(=O)oc2cc(N*)ccc12

For assay [1], the target named is T1, purified S1P(983)-C (Cricetulus griseus, UniProt Q9Z2A8, T875N).
T1 construct: Truncated S1P (amino acids 1-983); GGR linker (NotI site); made in house; host or cells: SRD-12B cells (mutant CHO cells lacking S1P) stably transfected with pCMV-S1P(983)-Myc-His (TR-3117, 'S1P(983) cells'); secreted into the medium and purified on Ni-NTA
T1 sequence (Q9Z2A8 187-983 T875N): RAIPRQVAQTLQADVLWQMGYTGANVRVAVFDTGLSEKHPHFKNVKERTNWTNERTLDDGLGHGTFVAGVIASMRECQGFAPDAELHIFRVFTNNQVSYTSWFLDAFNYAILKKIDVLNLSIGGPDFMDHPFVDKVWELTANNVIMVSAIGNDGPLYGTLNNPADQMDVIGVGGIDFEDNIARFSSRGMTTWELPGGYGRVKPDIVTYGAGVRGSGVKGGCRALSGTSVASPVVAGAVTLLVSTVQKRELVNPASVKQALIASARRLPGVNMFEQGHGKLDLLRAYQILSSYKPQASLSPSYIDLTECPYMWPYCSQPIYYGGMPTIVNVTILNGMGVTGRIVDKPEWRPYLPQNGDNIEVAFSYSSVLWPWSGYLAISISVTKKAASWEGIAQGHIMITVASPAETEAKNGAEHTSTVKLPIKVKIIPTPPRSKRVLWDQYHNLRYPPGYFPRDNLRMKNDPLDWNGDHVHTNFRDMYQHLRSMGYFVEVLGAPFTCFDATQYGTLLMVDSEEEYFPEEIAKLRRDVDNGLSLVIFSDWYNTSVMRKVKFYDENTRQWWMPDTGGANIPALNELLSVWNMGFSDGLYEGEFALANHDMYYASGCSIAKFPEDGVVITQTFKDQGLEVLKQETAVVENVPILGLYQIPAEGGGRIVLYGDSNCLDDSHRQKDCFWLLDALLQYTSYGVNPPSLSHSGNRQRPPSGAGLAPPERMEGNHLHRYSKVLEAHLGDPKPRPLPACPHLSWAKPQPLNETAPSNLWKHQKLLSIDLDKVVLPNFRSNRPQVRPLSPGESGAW
Nature of the assay: Fluorogenic peptide assay for S1P activity (cleavage of MCA-conjugated peptides). The assay is classed as biochemical, hamster. The conditions noted are these: for Relative Activity: 100 μM peptide-MCA, 3 μg S1P(983)-C, 37° C., 5 h, Ac-VFRSLK-MCA set at 1.0. On the procedure:
Fluorogenic Peptide Assay for S1P Activity
S1P activity was measured fluorometrically with MCA-conjugated peptidyl substrates. Each reaction was carried out in 0.2 ml of assay buffer (25 mM Tris, 25 mM Mes, 25 mM acetic acid, and 1 mM CaCl2 adjusted to pH 8.0 with concentrated NaOH). Reactions contained MCA-peptide (final concentration 100 μM, added in 2 μl DMSO) and […] of purified S1P(983)-C. After incubation for 0.5-5 h at 37° C., each reaction was terminated by addition of 1 ml of ice-cold 5 mM sodium EDTA. The liberated 7-amino-4-methyl-coumarin (AMC) was measured with a Perkin-ElmerLS-30 luminescence spectrometer (360 nm excitation, 460 nm emission). A standard curve of fluorescence intensity was generated with different concentrations of AMC (Promega).
Similar substrates have been used to assay furin, prohormone convertases, and other subtilisin-related enzymes (Nakayama, 1997). […] The sequence of this peptide corresponds to the sequence at Site-B of S1P, which is known to be cleaved by S1P in an autocatalytic reaction. Fluorescence rose linearly with time for 5 h. […] This differs from the observations with furin and the prohormone convertases, whose pH optima are generally in the range of 6-7 (Nakayama, 1997).
The indicated fluorogenic peptide-MCA (100 μM) was incubated with 3 μg of purified S1P(983)-C at 37° C. for 5 h. The S1P activity of Ac-VFRSLK-MCA (SEQ ID NO:13, 930 pmol per min/mg protein) was set at 1.0, and the activity of the other substrates was expressed relative to this value. Each value represents the average of duplicate incubations, which varied from each other by <10%.

In assay [2] the test system is SREBP-2. The assay can be described thus: Immunoblot of cleavage of HSV-tagged SREBP-2 in transfected SRD-12B cells. In kind it is cell-based, hamster. The conditions noted are these: for cleavage of SREBP-2 by S1P or S1P mutant: SRD-12B cells, HSV-tagged SREBP-2. On the procedure:
On day 0, SRD-12B cells were set up at a density of 6×10^5 cells/60-mm dish in medium B. On day 1, cells were transfected with 4 μg of the indicated plasmid DNA plus 12 μl of LipofectAMINE™ reagent (Life Technologies) according to the manufacturer's instructions with modifications as follows. LipofectAMINE™/DNA complexes were formed in 1 ml of serum-free medium for 15 min at room temperature, and 0.5 ml were added to 1 ml of serum-free medium per dish. […] After incubation at 37 ° C. for 20 h, the cells received N-acetyl-leucinal-leucinal norleucinal (ALLN) at a final concentration of 25 μg/ml. […] After boiling for 5 min, the proteins were subjected to SDS-PAGE and transferred to Hybond-C Extra nitrocellulose filters (Amersham). The filters were incubated with the antibodies described in the figure legends. […] Gels were calibrated with prestained molecular weight markers (New England Biolabs, Beverly, Mass.). Filters were exposed to X-Omat Blue XB-1 film (Kodak, Rochester, N.Y.) with intensifying screens at room temperature for the indicated time.
Cell membranes and nuclear extracts were subjected to electrophoresis and blotted with an antibody against the HSV epitope-tag.
In a more direct test for S1P catalytic activity, the mutant plasmids were transfected into the SRD-12B cells together with pTK-HSV-BP2. Membranes and nuclear extracts were subjected to SDS-PAGE and blotted with an antibody against the HSV-tagged SREBP-2 (FIG. 9B).
The inventors cotransfected cDNAs encoding wild-type S1P or one of the mutants. Cell membrane pellets and nuclear extracts were subjected to SDS-PAGE. and the NH2 -terminus of SREBP-2 was visualized by immunoblotting with anti-HSV (FIG. 16A).
(Immunoblotting shows a protein as a band on a membrane.)

On to `CC(=O)N[C@@H](CO)C(=O)NCC(=O)N[C@@H](CO)C(=O)NCC(=O)N[C@@H](CCCNC(=N)N)C(=O)N[C@@H](CO)C(=O)N[C@H](C(=O)N[C@@H](CC(C)C)C(=O)Nc1ccc2c(C)cc(=O)oc2c1)C(C)C` (Ac-SGSGRSVL-{AMC}), for which the “Relative Activity” value in assay [1] is on record as below 0.1.
Regarding `CC(=O)N[C@@H](CCCNC(=N)N)C(=O)N[C@@H](CO)C(=O)N[C@@H](CC(C)C)C(=O)N[C@@H](CCCCN)C(=O)Nc1ccc2c(C)cc(=O)oc2c1` [Ac-RSLK-MCA, Ac-Arg-Ser-Leu-Lys-MCA] (Ac-RSLK-{AMC}), the “Relative Activity” value in assay [1] worked out at 0.47. Also, in assay [1] (result in words), the “cleavage of the peptide” value is “cleaves”.

B1: Site B+C mutant: S1P containing both the Site-B and Site-C mutations (protein)
chain: DGGRSEQKLISEEDLNGEQKLISEEDLNGEQKLISEEDLNSSGRLGKKAFEKASCPSCSHLTLKVEFSSTVVEYEYIVAFNGYFTAKARNSFISSALKSSEVDNWRIIPRNNPSSDYPSDFEVIQIKEKQKAGLLTLEDHPNIKRVTPQRKVFAAAAFAESDPIVPCNETRWSQKWQSSRPLVAASLSLGSGFWHATGRHSSAAAAAAIPRQVAQTLQADVLWQMGYTGANVRVAVFDTGLSEKHPHFKNVKERTNWTNERTLDDGLGHGTFVAGVIASMRECQGFAPDAELHIFRVFTNNQVSYTSWFLDAFNYAILKKIDVLNLSIGGPDFMDHPFVDKVWELTANNVIMVSAIGNDGPLYGTLNNPADQMDVIGVGGIDFEDNIARFSSRGMTTWELPGGYGRVKPDIVTYGAGVRGSGVKGGCRALSGTSVASPVVAGAVTLLVSTVQKRELVNPASVKQALIASARRLPGVNMFEQGHGKLDLLRAYQILSSYKPQASLSPSYIDLTECPYMWPYCSQPIYYGGMPTIVNVTILNGMGVTGRIVDKPEWRPYLPQNGDNIEVAFSYSSVLWPWSGYLAISISVTKKAASWEGIAQGHIMITVASPAETEAKNGAEHTSTVKLPIKVKIIPTPPRSKRVLWDQYHNLRYPPGYFPRDNLRMKNDPLDWNGDHVHTNFRDMYQHLRSMGYFVEVLGAPFTCFDATQYGTLLMVDSEEEYFPEEIAKLRRDVDNGLSLVIFSDWYNTSVMRKVKFYDENTRQWWMPDTGGANIPALNELLSVWNMGFSDGLYEGEFALANHDMYYASGCSIAKFPEDGVVITQTFKDQGLEVLKQETAVVENVPILGLYQIPAEGGGRIVLYGDSNCLDDSHRQKDCFWLLDALLQYTSYGVNPPSLSHSGNRQRPPSGAGLAPPERMEGNHLHRYSKVLEAHLGDPKPRPLPACPHLSWAKPQPLNETAPSNLWKHQKLLSIDLDKVVLPNFRSNRPQVRPLSPGESGAWDIPGGIMPGRYNQEVGQTIPVFAFLGAMVALAFFVVQISKAKSRPKRRRPRAKRPQLTQQTHPPRTPSV
With B1, the “cleavage of SREBP-2 by S1P or S1P mutant” value in assay [2] is “no detectable cleaved nuclear form”.

B2: S1P-A: amino acids 23-1052 of SEQ ID NO:1 (protein)
chain: DRLGKKAFEKASCPSCSHLTLKVEFSSTVVEYEYIVAFNGYFTAKARNSFISSALKSSEVDNWRIIPRNNPSSDYPSDFEVIQIKEKQKAGLLTLEDHPNIKRVTPQRKVFRSLKFAESDPIVPCNETRWSQKWQSSRPLRRASLSLGSGFWHATGRHSSRRLLRAIPRQVAQTLQADVLWQMGYTGANVRVAVFDTGLSEKHPHFKNVKERTNWTNERTLDDGLGHGTFVAGVIASMRECQGFAPDAELHIFRVFTNNQVSYTSWFLDAFNYAILKKIDVLNLSIGGPDFMDHPFVDKVWELTANNVIMVSAIGNDGPLYGTLNNPADQMDVIGVGGIDFEDNIARFSSRGMTTWELPGGYGRVKPDIVTYGAGVRGSGVKGGCRALSGTSVASPVVAGAVTLLVSTVQKRELVNPASVKQALIASARRLPGVNMFEQGHGKLDLLRAYQILSSYKPQASLSPSYIDLTECPYMWPYCSQPIYYGGMPTIVNVTILNGMGVTGRIVDKPEWRPYLPQNGDNIEVAFSYSSVLWPWSGYLAISISVTKKAASWEGIAQGHIMITVASPAETEAKNGAEHTSTVKLPIKVKIIPTPPRSKRVLWDQYHNLRYPPGYFPRDNLRMKNDPLDWNGDHVHTNFRDMYQHLRSMGYFVEVLGAPFTCFDATQYGTLLMVDSEEEYFPEEIAKLRRDVDNGLSLVIFSDWYNTSVMRKVKFYDENTRQWWMPDTGGANIPALNELLSVWNMGFSDGLYEGEFALANHDMYYASGCSIAKFPEDGVVITQTFKDQGLEVLKQETAVVENVPILGLYQIPAEGGGRIVLYGDSNCLDDSHRQKDCFWLLDALLQYTSYGVNPPSLSHSGNRQRPPSGAGLAPPERMEGNHLHRYSKVLEAHLGDPKPRPLPACPHLSWAKPQPLNETAPSNLWKHQKLLSIDLDKVVLPNFRSNRPQVRPLSPGESGAWDIPGGIMPGRYNQEVGQTIPVFAFLGAMVALAFFVVQISKAKSRPKRRRPRAKRPQLTQQTHPPRTPSV
In the case of B2, the “cleavage of SREBP-2 by S1P or S1P mutant” value in assay [2] was “inactive”.

B3: Site-B mutant: S1P with amino acids 134-137 mutated from RSLK to AAAA (protein)
chain: MKLINIWLLLLVVLLCGKKHLGDRLGKKAFEKASCPSCSHLTLKVEFSSTVVEYEYIVAFNGYFTAKARNSFISSALKSSEVDNWRIIPRNNPSSDYPSDFEVIQIKEKQKAGLLTLEDHPNIKRVTPQRKVFAAAAFAESDPIVPCNETRWSQKWQSSRPLRRASLSLGSGFWHATGRHSSRRLLRAIPRQVAQTLQADVLWQMGYTGANVRVAVFDTGLSEKHPHFKNVKERTNWTNERTLDDGLGHGTFVAGVIASMRECQGFAPDAELHIFRVFTNNQVSYTSWFLDAFNYAILKKIDVLNLSIGGPDFMDHPFVDKVWELTANNVIMVSAIGNDGPLYGTLNNPADQMDVIGVGGIDFEDNIARFSSRGMTTWELPGGYGRVKPDIVTYGAGVRGSGVKGGCRALSGTSVASPVVAGAVTLLVSTVQKRELVNPASVKQALIASARRLPGVNMFEQGHGKLDLLRAYQILSSYKPQASLSPSYIDLTECPYMWPYCSQPIYYGGMPTIVNVTILNGMGVTGRIVDKPEWRPYLPQNGDNIEVAFSYSSVLWPWSGYLAISISVTKKAASWEGIAQGHIMITVASPAETEAKNGAEHTSTVKLPIKVKIIPTPPRSKRVLWDQYHNLRYPPGYFPRDNLRMKNDPLDWNGDHVHTNFRDMYQHLRSMGYFVEVLGAPFTCFDATQYGTLLMVDSEEEYFPEEIAKLRRDVDNGLSLVIFSDWYNTSVMRKVKFYDENTRQWWMPDTGGANIPALNELLSVWNMGFSDGLYEGEFALANHDMYYASGCSIAKFPEDGVVITQTFKDQGLEVLKQETAVVENVPILGLYQIPAEGGGRIVLYGDSNCLDDSHRQKDCFWLLDALLQYTSYGVNPPSLSHSGNRQRPPSGAGLAPPERMEGNHLHRYSKVLEAHLGDPKPRPLPACPHLSWAKPQPLNETAPSNLWKHQKLLSIDLDKVVLPNFRSNRPQVRPLSPGESGAWDIPGGIMPGRYNQEVGQTIPVFAFLGAMVALAFFVVQISKAKSRPKRRRPRAKRPQLTQQTHPPRTPSV
For the molecule B3, the “cleavage of SREBP-2 by S1P or S1P mutant” value in assay [2] was “weak activity”. Also, the “expression level required for SREBP-2 cleavage, compared to wild-type S1P” value in assay [2] (pTK plasmids, FIG. 16) was > 10 -fold.

The values are drawn from patent US6322962A, “Sterol-regulated Site-1 protease and assays of modulators thereof” (Board of Regents, The University of Texas System, priority 1999, dated 2001).
